Laboratory results as given in paper PMC13399020 (The FASEB Journal, 2026).
Several values for one entry are separate records, joined by “and”; a condition that tells them apart may be missing. Equal values may be shown once.

B1: phenylalanine hydroxylase, wild type (PAH-WT), full-length (enzyme, human, UniProt P00439 1-452, looked up)
chain: MSTAVLENPGLGRKLSDFGQETSYIEDNCNQNGAISLIFSLKEEVGALAKVLRLFEENDVNLTHIESRPSRLKKDEYEFFTHLDKRSLPALTNIIKILRHDIGATVHELSRDKKKDTVPWFPRTIQELDRFANQILSYGAELDADHPGFKDPVYRARRKQFADIAYNYRHGQPIPRVEYMEEEKKTWGTVFKTLKSLYKTHACYEYNHIFPLLEKYCGFHEDNIPQLEDVSQFLQTCTGFRLRPVAGLLSSRDFLGGLAFRVFHCTQYIRHGSKPMYTPEPDICHELLGHVPLFSDRSFAQFSQEIGLASLGAPDEYIEKLATIYWFTVEFGLCKQGDSIKAYGAGLLSSFGELQYCLSEKPKLLPLELEKTAIQNYTVTEFQPLYYVAESFNDAKEKVRNFAATIPRPFSVRYDPYTQRIEVLDNTQQLKILADSINSEIGILCSALQKIK
modifications: biotin (EZ-Link NHS-PEG4-Biotin) in the BLI experiments only
notes: phenylalanine hydroxylase (PAH), human, wild type; RD residues 1-110, CD 111-410, OD 411-452; Homotetramer; a minor octamer is also seen; also called full-length PAH
B2: PAH-p.R261Q (enzyme, human)
chain: MSTAVLENPGLGRKLSDFGQETSYIEDNCNQNGAISLIFSLKEEVGALAKVLRLFEENDVNLTHIESRPSRLKKDEYEFFTHLDKRSLPALTNIIKILRHDIGATVHELSRDKKKDTVPWFPRTIQELDRFANQILSYGAELDADHPGFKDPVYRARRKQFADIAYNYRHGQPIPRVEYMEEEKKTWGTVFKTLKSLYKTHACYEYNHIFPLLEKYCGFHEDNIPQLEDVSQFLQTCTGFRLRPVAGLLSSRDFLGGLAFQVFHCTQYIRHGSKPMYTPEPDICHELLGHVPLFSDRSFAQFSQEIGLASLGAPDEYIEKLATIYWFTVEFGLCKQGDSIKAYGAGLLSSFGELQYCLSEKPKLLPLELEKTAIQNYTVTEFQPLYYVAESFNDAKEKVRNFAATIPRPFSVRYDPYTQRIEVLDNTQQLKILADSINSEIGILCSALQKIK
notes: phenylalanine hydroxylase (PAH), human, disease-associated variant p.R261Q; Derived from pMAL-c5x/PAH, which encodes human PAH-WT; called tetrameric in the legends; also called PKU-associated variant PAH-p.R261Q; source: E. coli K12 TB1, purified
B3: C-terminal peptide DNAJC12(176-198) (peptide, UniProt Q9UKB3 176-198, looked up)
peptide: HLRFRWSKDAPSELLRKFRNYEI
notes: only its last seven residues 192-KFRNYEI-198 are printed; also called C-terminal DNAJC12 peptide; CTD peptide; source: synthetic peptide, bought: GenScript
B4: tyrosine hydroxylase (TH) (enzyme)
chain: not shown
modifications: biotin (EZ-Link NHS-PEG4-Biotin) in the BLI experiment only
notes: tyrosine hydroxylase (TH); The methods tell neither plasmid nor purification of TH; also called unliganded TH
B5: MBP-PAH(33-112) (domain or fragment, human, UniProt P00439 33-112, looked up)
chain: GAISLIFSLKEEVGALAKVLRLFEENDVNLTHIESRPSRLKKDEYEFFTHLDKRSLPALTNIIKILRHDIGATVHELSRD
notes: Derived from pMAL-c5x/PAH (GenScript); Dimer in 1 mM L-Phe by SEC-MALS; theoretical monomer 52.9 kDa with MBP; also called MBP-PAH(RD); PAH(RD); source: E. coli K12 TB1, purified

Assays:
[1] = molecular target: T1, DNAJC12, wild type, full-length (human, UniProt Q9UKB3 1-198); test: BLI; with 1 mM L-Phe; biotinylated PAH on streptavidin biosensors, DNAJC12 0.01-4 μM in solution; 25°C, PBS, 0.02% Tween-20, 0.5 mg/mL BSA; responses against concentration fitted to a one-site hyperbola; conditions: both partners purified
T1 construct: J-domain 14-76, linker-helix 87-100, CTD 176-198; also called DNAJC12-WT

[2] = molecular target: T1, DNAJC12, wild type, full-length; test: BLI; without L-Phe; biotinylated PAH or TH on streptavidin biosensors, DNAJC12 0.01-4 μM in solution; 25°C, PBS, 0.02% Tween-20, 0.5 mg/mL BSA; responses against concentration fitted to a one-site hyperbola; conditions: both partners purified
[3] = molecular target: the molecule itself; test: SEC-MALS; PAH (2 mg/mL) and pre-purified PAH:DNAJC12 complex (2 mg/mL); Superdex 200 Increase, 20 mM Na-Hepes pH 7.0, 200 mM NaCl, without L-Phe supplementation
[4] = molecular target: T1, DNAJC12, wild type, full-length; test: SEC; with 1 mM L-Phe in sample and running buffer; 20 μM (subunit) PAH, PAH variant or MBP-PAH construct with 20-40 μM DNAJC12 or truncated DNAJC12; Superdex 200 Increase, 4°C, 20 mM Na-Hepes pH 7.0, 200 mM NaCl; complex fraction also checked by SDS-PAGE; conditions: both partners purified
[5] = molecular target: B1; test: differential scanning fluorimetry; thermal unfolding of PAH (1.92 μM) with SYPRO Orange at increasing DNAJC12(176-198) peptide (0-16 μM); Tm1 followed; conditions: both partners purified
[6] = molecular target: the molecule itself; test: SEC-MALS; MBP-PAH(RD) (4 mg/mL) alone or with DNAJC12 (4 mg/mL); Superdex 200 Increase, 20 mM Na-Hepes pH 7.0, 200 mM NaCl, 1 mM L-Phe

| Binder | Kd [2] [nM] | binding result [4] | also measured |
| --- | --- | --- | --- |
| B1 | 508 ± 59 | – | Kd [1]: 139 ± 19 nM; stoichiometry N [3]: 8 subunits in the oligomer and 4 subunits in the oligomer |
| B2 | – | binds | – |
| B3 | – | – | binding result [5]: binds |
| B4 | 138 ± 34 | – | – |
| B5 | – | binds | stoichiometry N [6]: 2 subunits in the oligomer |
